Experimental data reported in patent US12497461B2, “Human NTCP-binding antibody capable of inhibiting infection of hepatitis B virus (HBV) to human hepatocytes” (priority 2019, dated 2025).
“And” between values parts separate entries of the source, which are not always exact repeats. Equal entries are not always repeated.

Experiments:
pseudo-HBV (HBV/NL) = test: Infection inhibitory activity test using pseudo-HBV with integrated NanoLuc gene (Example 1); assay type: cell-based, hepatitis B virus (HBV); conditions: pseudo-virus, FIG. 1A
Protocol: The culture supernatant of 61,500 hybridomas was allowed to react with B lymphoma cell line forcibly expressing hNTCP and a parent cell line, washed and stained with a fluorescence-labeled anti-mouse IgG antibody. Screening was carried out by FACS to obtain 700 hybridoma cell lines producing an antibody that binds to an NTCP. The positive-hybridoma culture supernatant was screened by an HBV inhibitory activity test using a pseudo-virus. […] Using the culture supernatant of each clone, the test was repeated. As is apparent from FIG. 1A, hybridoma clones producing an antibody, which lowers an HBV infection rate but not viability of cells, were obtained.
The clone-derived antibodies established were purified and the activities of them were checked again by a test for infection inhibitory activity using pseudo-HBV obtained by integrating a NanoLuc gene into the genome.

HBV = test: HBV-infection inhibition in human hepatocyte chimeric mouse, serum HBV-DNA; assay type: in vivo, human hepatocyte chimeric mouse (uPA/SCID); parameters: key to serum HBV DNA level, One week later / serum HBV DNA level, Two weeks later / serum HBV DNA level, Three weeks later / serum HBV DNA level, Four weeks later / serum HBV DNA level, Five weeks later: “—” indicates values below the limit of detection.; “<3.61” indicates values below the limit of quantitation but a specific signal detected indicating an amplification reaction of HBV
Protocol: (§1) Preparation of uPA/SCID mice and transplantation of human hepatocytes were carried out in accordance with the report (Tateno C. et al., Am. J. Pathol., 165: 901-912, 2004). To all mice, human hepatocytes taken from the same donor were transplanted. Twenty-three mice, which are obtained by replacing 90% or more of the liver tissue with human hepatocytes by transplantation, were used in the experiment. To these mice, human serum containing 10^3 copies of HBV was administered (inoculated) through the tail vein. One day before and two days after HBV inoculation, 2.0 mg of purified N6HB426-20 antibody was intravenously injected. On Day 7, 14, and 21 after the HBV inoculation, 1.0 mg of the same antibody was intraperitoneally injected. As a control experiment, the same dose of normal mouse IgG antibody (Normal Mouse IgG, Whole Molecule, Purified, FUJIFILM Wako Pure Chemical Corporation) was injected in the same manner. A single mouse died on Day 0 after administration was excluded from the experiment. Ten mice for each of the groups, in total, 20 mice, were used. After the HBV inoculation, the serum was collected every week. Note that, 3 mice were used for confirmation of infection and not administered with a drug.
(§2) For quantification of HBV-DNA, 10 μL of mouse serum was used. Mouse serum was diluted with 690 μL of PBS and DNA was extracted. The serum HBV-DNA level was measured by a real-time PCR method using cobas 6800 System (Roche Diagnostics KK, Tokyo, Japan). In this measurement method, the lower limit of quantification was 3.61 log copies/mL. Mouse serum (10 μL) was diluted 30 folds with PBS and bile acid was measured.

[1] = assay type: in vivo, human hepatocyte chimeric mouse (uPA/SCID); conditions: administration group; highest at HBV inoculation, decreased on and after the first week
Protocol: as §1, with “Ten mice for each of the groups, in total, 20 mice, were used. After the HBV inoculation, the serum was collected every week. Note that, 3 mice were used for confirmation of infection and not administered with a drug.” left out
as §2, with “Mouse serum was diluted with 690 μL of PBS and DNA was extracted.” left out

human NTCP = target: T1, human NTCP (Homo sapiens, UniProt Q14973); test: In vitro bile acid ([3H]-taurocholic acid) uptake in human NTCP-expressing HepG2 (Example 1); assay type: cell-based
T1 construct: expressed in transfected cells; host or cells: HepG2 cells, lentiviral transduction
T1 sequence (Q14973 1-349): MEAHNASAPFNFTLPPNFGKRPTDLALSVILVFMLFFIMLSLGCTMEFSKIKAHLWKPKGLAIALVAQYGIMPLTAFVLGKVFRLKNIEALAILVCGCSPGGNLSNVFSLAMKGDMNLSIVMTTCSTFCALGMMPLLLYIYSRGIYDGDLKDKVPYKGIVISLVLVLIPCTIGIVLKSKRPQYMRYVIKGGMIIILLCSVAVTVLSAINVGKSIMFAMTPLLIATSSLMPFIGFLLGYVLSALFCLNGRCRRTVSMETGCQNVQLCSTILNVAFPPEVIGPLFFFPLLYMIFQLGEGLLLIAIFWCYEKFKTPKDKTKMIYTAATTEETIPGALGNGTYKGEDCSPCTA

[2] = system: HBV / NTCP double mutant (PE276, 277AA); test: HBV infection of cells expressing NTCP double mutant in the presence of antibody; assay type: cell-based, hepatitis B virus (HBV); conditions: FIG. 7
From the text: To establish NTCP expression cells, HepG2 cells or Huh7 cells were infected with a lentiviral vector having a nucleic acid encoding a wild-type NTCP or each of NTCP mutants. Forty-eight hours after infection, the cells were subjected to an immunofluorescence assay or a viral infection assay.

B1: N6HB426-20 antibody: anti-human NTCP monoclonal antibody from a sub-clone of N6HB426 hybridoma; VH SEQ ID NO: 3, VL SEQ ID NO: 4 (antibody, V domains shown)
VH: QVQLQQSGAELVKPGASVKLSCKASDFTFTEYTIHWIKQMSGQGLEWIGWFYPGSGDIKYSEKFKDKATLTADKSSSTVYMELNRLTSEDSAVYFCARHMRDFRGFYYGRFYFDYWGQGTTLTVSS
VL: EIVLTQSPAIMSASPGEKVTITCRASSSVSSSYLHWYQQKSGVSPKLWIYSTSNLASGVPARFSGSGSGTSYSLTINSVEAEDAATYYCQQYSGYRWTFGGGTTLEIKRA
modifications: N6HB426 antibody heavy chain variable region; N6HB426 antiibody light chain variable region
pseudo-HBV (HBV/NL)
  HBV inhibitory activity of hybridoma culture supernatant: comparable to preS1 peptide
HBV; all of the 10 mice of the group
  serum HBV-DNA in the 4th week after HBV inoculation: not detected
HBV; test group, individual mice, five weeks after HBV inoculation
  serum HBV DNA level, Five weeks later: — (8×) and <3.61 log copies/mL
HBV; test group, individual mice, four weeks after HBV inoculation
  serum HBV DNA level, Four weeks later: —
HBV; test group, individual mice, one week after HBV inoculation
  serum HBV DNA level, One week later: —
HBV; test group, individual mice, three weeks after HBV inoculation
  serum HBV DNA level, Three weeks later: —
HBV; test group, individual mice, two weeks after HBV inoculation
  serum HBV DNA level, Two weeks later: —
[1]
  bile acid level in the sera: transient increase
Human NTCP; 1000 nM, 1 µM
  inhibition of bile acid uptake: 3%
Human NTCP; 1000 nM, listed as purified N6HB426 antibody, 1 µM
  inhibition of bile acid uptake: at most 2%
Human NTCP; at concentration required for inhibition of infection (IC50 20 to 30 nM)
  inhibition of bile acid uptake: virtually did not inhibit
[2]
  inhibition of HBV infection of cells expressing double mutant (PE276, 277AA): failed to be inhibited
